Assay results: patent US10100120B2, “Antibody which specifically binds to human CRTH2” (KYOWA HAKKO KIRIN CO., LTD, priority 2015, dated 2018)

Target: T1, human CRTH2 (Homo sapiens, UniProt Q9Y5Y4)
T1 construct: expressed in transfected cells
T1 sequence (Q9Y5Y4 1-395): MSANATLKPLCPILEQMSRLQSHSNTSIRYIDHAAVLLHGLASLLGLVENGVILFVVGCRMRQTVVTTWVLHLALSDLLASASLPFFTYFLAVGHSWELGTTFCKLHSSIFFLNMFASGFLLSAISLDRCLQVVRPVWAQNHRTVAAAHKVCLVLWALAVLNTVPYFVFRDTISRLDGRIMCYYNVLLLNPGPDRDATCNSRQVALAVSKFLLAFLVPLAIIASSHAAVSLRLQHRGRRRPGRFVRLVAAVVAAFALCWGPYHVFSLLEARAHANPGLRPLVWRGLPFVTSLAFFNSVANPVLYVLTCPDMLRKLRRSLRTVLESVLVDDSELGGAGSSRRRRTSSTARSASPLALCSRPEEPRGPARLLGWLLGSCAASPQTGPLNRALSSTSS
Test: ELISA reactivity against membrane fractions of human CRTH2-expressing CHO/DG44 cells with GTPγS or GDP treatment
Format: binding
Details: HRP-labeled antibody, FIG. 19
Experimental: Humanized Lym2 antibody LV0HV1 and hu19A2 v52 were directly labeled with HRP using Peroxidase Labeling Kit-NH2 (Dojindo Molecular Technologies, Inc.) according to the attached document and diluted to 1 mg/mL with D-PBS (−) (NACALAI TESQUE, Inc.).
The human CRTH2-expressing CHO/DG44 cells established in Example 1 were peeled using 0.02% EDTA solution (NACALAI TESQUE, Inc.) and the cells were washed with D-PBS (−) cooled to 4° C. The membrane fractions were prepared using Minute Plasma Membrane Protein Isolation Kit (Invent Biotechnologies) according to the attached document.
50 mM Tris-HCl buffer pH 7.4 (NACALAI TESQUE, Inc.) to which 50 mM HEPES (GIBCO Inc.), 5 mM MgCl2 (NACALAI TESQUE, Inc.), 100 mM NaCl (NACALAI TESQUE, Inc.), and 1 mM EDTA (Invitrogen) were added (hereinafter, referred to as an ELISA reaction solution) was added to the membrane fractions prepared in (2) to have a concentration of 1 mg/mL, and the mixture was added to PROTEOSAVE 1.5 mL Microtubes (Sumitomo Bakelite Co., Ltd.) at 50 μL/tube.
Next, an ELISA reaction solution to which 500 μM GTPγS (Roche Diagnostics K.K.) or 500 μM GDP (Sigma-Aldrich Co. LLC) was added was added to the microtubes at 50 μL/tube for incubation at 30° C. for 1 hour. […]
The absorbance at 480 nm was measured by SPECTRA max 340PC and the obtained result was analyzed using Graphpad Prism (ver. 6.05). […]

B1: LV0HV1: humanized Lym2 antibody, VL LV0 (SEQ ID NO: 33), VH HV1 (SEQ ID NO: 51) (antibody, V domains shown)
VH: EVQLVESGGGVVQPGRSLRLSCAASGFTFSNYYMAWVRQAPGKGLEWVATISYDGSSTYYRDSVKGRFTISRDNAKNSLYLQMNSLRAEDTATYYCARHRGYYYSGAGYFDYWGQGTMVTVSS
VL: DIVMTQTPLSLPVTPGESASISCRSSQSLEYSDGYTYLEWYLQKPGQSPQVLIYGVSNRFSGVPDRFSGSGSGTDFTLKISRVEAEDVGVYYCFQATHDPLTFGQGTKLEIK
  reactivity with respect to membrane fractions at GDP treatment compared to GTPγS treatment: not changed
